{"source": "a protein production outcome set (Wang et al. 2014)"}
{"test": "label from the status in PepcDB records"}
{"sequence": "DGQTYQIGFEMRLPVSWNGRFLYQGNGGTDGNIATATGQVGSGGMLSNALKDGFAVISSDAGHSSAQNPLFGLDPQARINYGYGAITKLTPMAKDLIKTAYGKLPDRSYAGGTSNGGRHAMMAATRLGDQYDGILASTPGFHLPRAAAAQLYTAQQLRRVATDENDLSTALTYAERNVLANAILTRCDALDGVADGMVQDVEACRTAFDIHKDVPVCSGSRDGSCLSKDQIDVVANIYRGPVNSSGEALYATQPYDPGLLGSNWASWKFVSSVGTARDPVAVGIIFQVPPDPTIVQNSRKFAFNYNFDTDYPKLSATNSTYSESAMSFMIPPDELNLDKLRLHGGKMIVVQGTADGVFSVDDTQNWYDKLMAKYKSSSLGDAQSFARFYRVPGMNHSRGGLATDQFDALTALVNWVEYGQA", "protein production": "failed"}
{"sequence": "DIEALTLLEIADPIREDAAETLEYLRSEDVTLKIISGDNPVTVSHIAHQAGFADYQSYIDCSKVSDEELEALAEDTAIFGRVSPHQKKLLIQTLNANGHTTAMTGDGVNDILALREADCSIVMAEGDPATRQIANLVLMDSEFKDIPE", "protein production": "failed"}
{"sequence": "DKCKKVYENYPVSKCQLANQCNYDCKLDKHARSGECFYDEKRNLQCICDYCEY", "protein production": "not failed"}
{"sequence": "DNAMEEEIQSIMKIERDLFLAIKNKEFVIHYQPKVDSSTGNIIGSEALIRWLHPSLGMVGPNKFIPIAEKNGLINNIGRWLIQEVFITINKWISEGINVLPVSINLSRVELYKNDLVDFFKLMFNTYNIPKELIELEITETTALRDVKFISERLYEIKSLGMNISLDDFGVGNSNFINLKGIPLDIIKIDRSLILDIVTNTKTKFMVKAIVNLSHDLNVTVICEGVEDMHQVKVLSELGCNFIQGYVFFKP", "protein production": "failed"}
{"sequence": "DNDAIYYPVGDVDIERGGPALEVGEEDVLVARSFNEEDYVLDTIAQYPNDPTLGKLTFMIDLKNQQKDQNVADFNGVGKSKLTMSLGYKDGNYPSESQVPIYTSQDVTAKYAVKLRLKGELLVSGDEWMIDYVYAQLASLFQPYPPANFPEVFMCKGGMKLGTFDSFRRTCTFDITYDRSDLSFSQLYFNLFINLAGQKRENRVRLRIDKESYFELYEQSEEM", "protein production": "not failed"}
{"sequence": "DPAVLLDRAGRVIHLNAAAAQLAPALRVRELAQFALRSPEIVTALREAIATSEPRRVTYLDHGSIERWLELIIAPVQVPTAFGGTDQCMLMTFHDLTPLRRVEEMRADFVANASHELRTPLAALSGFIDTLQGQAR", "protein production": "failed"}
{"sequence": "DPEEIMQVAVEKLGQGLGICRCVIYRCSADDTVATINHEFLGSGVGSIKGYPWPLKDNPLFQEVVVLKEAIAIDNIDRDPRLGEPEPSTGEVKTLVKSCAILSWMLVPIFYRERLLGMMEFHHCGPAPTEWEDDALTLVEGVATQIGVALIQAESYANLQELNEQLAALDRTRSNLVAITGHELRTP", "protein production": "failed"}
{"sequence": "DRCYNCGGLDHHAKECKLPPQPKKCHFCQSISHMVASCPLKAQQGPSAQG", "protein production": "not failed"}
{"sequence": "DREREQHKREEAIQNFKALLSDMVRSSDVSWSDTRRTLRKDHRWESGSLLEREEKEKLFNEHIEALTKKKRE", "protein production": "not failed"}
{"sequence": "DTPEPYSEQDLWDWLRNSTDLQEPRPRAKRRPIVKTGKFKKMFGWGDFHSNIKTVKLNLLITGKIVDHGNGTFSVYFRHNSTGQGNVSVSLVPPTKIVEFDLAQQTVIDAKDSKSFNCRIEYEKVDKATKNTLCNYDPSKTCYQEQTQSHVSWLCSKPFKVICIYISFYSTDYKLVQKVCPDYNYHSDTPYFPSG", "protein production": "failed"}
{"sequence": "DVAYELPAHTTRAQLSIDLVNNGDVEQQEKINSMRFIVFGSTPGGVRLDVNEHILLSTPETATDIDAQLLEVTSSNDILVVVIANEPQSLTSQLDGIANLLTLQEMIYDISSILNSDGQIISATGMPMTGVIRDISIAPDETKTVQMVIERAVARVDVFIEAIDGGAVTGYTAGSTSVTLHNFSHDSYFVMGNVGNGTRDNADSSKNYGKVKEDVSESNLLTHSWTAATTETWAYSSAPGAENRKLLCSFYTAERLFKSDYSDRLSISMANVLKGPSDVTGITGKVIESVTKVDGTGSPTAQPFTEIRRNNVYQVTARVGKIGIQILTISVEDWGERQDIDLDMDL", "protein production": "not failed"}
{"sequence": "DVRVKFEHRGEKRILQFPRPVKLEDLRSKAKIAFGQSMDLHYTNNELVIPLTTQDDLDKAVELLDRSIHMKSLKILLVINGSTQATNLEP", "protein production": "not failed"}
{"sequence": "DWLDLNTTSSVETGQAIVTLDDAQIALNGIYRLASGHSYYGDNYWYYGDCRAADVQARITKGDGKRVSPYYEYNVLASDNLNIVLPWNTVYKVIRQTNNLIQKIESGSIQSSDTKELNRIKSEALVMRGLSLFNLTRLFGMPYTNDKGASLGVPIETSPSDPTHKPSRSTVAQCYEQVVSDMSNALSGLRQETSNGYINYWAAQALLSRVYLNMGEYQKAYDAATDVIKNNGGRYQLYSYEEYPNVWGQDFQSESLFELYITLSEPSGGTGGEGAPMVYANEATVDWNNLILSEDFLNLLNEDPKDVRHCLTKESVIENNTGLPAAAMHEKVYLAKFPGKTGDDPKTNNICIIRLSEVYLNAAEAGLKKGTDIEEAQGYLNDIISRRTTDTSQQVSTETFTLDRILKERRKELVGEGEVFYDYLRNGLAIERKGSWHLETLKASNAQKIEATDLRIALPIPQSEIDANPNIQQNPR", "protein production": "not failed"}
{"sequence": "EADYKQATALELATLVREKKVTSEELVKIALAITKRENPTLNAVITLREEAALTEAKALQDTGQPFLGVPLLLKGLGQSLKGESNTNGFGFLQDQVAGGTSTFVKALQNAGFIIIGQTNYPELGWKNISDSKLYGVSVNPWNPNHYSGGSSGGAGASVAAAFVPIASGSDAGGSIRIPASWTGTVGLKPSRGVIIGNSNSAKGQTVHFGLSRTVADTNALFETLLTKKDLPAGHLSQAQPIAYTTESPAGTPISAEAKEAVAEAVAFLKDQGYTLVEVKHPVDGERLMKNYYTVAAGSAGIADFMARQKLKRPLERNDVELLTWALFQTGKNITSEETTAAWTDIALQAQAMDEFYQQYPILLTPTTAATAPSIDNPLLKPEHAAQMEKIDQLSPAEQKQLIYDQWLTAFTYTPFTQQANLFGHPALSVPTYVSKEGLPLGIQFNSALNEDRTLLQLGALFENNHK", "protein production": "failed"}
{"sequence": "EAERVSVEHTSANPTGPLHIGRARNSIIGDSIYRILSRYGYRTVRQYFVNDSGKQMISLYTAYIKYGGPITIENLLENYQKIYREMEKDQSIEKEIEKNIERYENADPEVFGTLRKIAGVMLDGIASTLKRIGIEFDEFDWESDLLLNGSVRKAIDMLETKEEDSARYIEISGKKVFLTRKDGTTLYFARDIAYHLFKAENSEWIIDVLGEDHKDHAKSLNHVLKEMLKLENRVSFMYYSFITLETGKMSTRRGNIVTLQDLVDRTYDEALKIVNEKRPDLSEEERKKIAEVIASSAVRYSIIRVSAPKPITFRWEEALNFESNSAPFIMYS", "protein production": "failed"}
{"sequence": "EAGYEAGTEYLNLDEQPATILDAEHLGIETKEPITIIERLRTANHKPVVYCLDKIAKTYLTCTDYQQSSGSMLEAIKASTNHQIMHAEMDLEAISYEPHISEVLNASPHEGLMLLKVVHYDEKHQPILYSLNYIKSSLVKFTITKSE", "protein production": "not failed"}
{"sequence": "EDLSAQPVQTKFPAYERVVLREAGFLRPVTIFGPIADVAREKLAREEPDIYQIAKSEPRDAGTDQRSSGIIRLHTIKQIIDQDKHALLDVTPNAVDRLNYAQWYPIVVFLNPDSKQGVKTMRMRLCPESRKSARKLYERSHKLRKNNHHLFTTTINLNSMNDGWYGALKEAIQQQQNQLVWVSEGKADGAT", "protein production": "failed"}
{"sequence": "EEWLDILGNGLLRKKTLVPGPPGSSRPVKGQVVTVHLQTSLENGTRVQEEPELVFTLGDCDVIQALDLSVPLMDVGETAMVTADSKYCYGPQGSRSPYIPPHAALCLEVTLKTAVDRPDLEM", "protein production": "not failed"}
{"sequence": "EFVINPNGKSEVCILHEYMQRVLKVRPVYNFFECENPSEPFGASVTIDGVTYGSGTASSKKLAKNKAARATLEILIPDFVKQTSE", "protein production": "not failed"}
{"sequence": "EIEICPKVTQSIHIEKSDTAADTYGFSLSSVEEDGIRRLYVNSVKETGLASKKGLKAGDEILEINNRAADALNSSMLKDFLSQPSLGLLVRTYPELEEGVE", "protein production": "not failed"}
{"sequence": "EIILANISDTVFVTDLSGKFTFICSNIDNIFGYSLAEVNAMGTVETLLGDFRFNEYELKEKGELKNLRHDVQDKQGKIHYLLINLKKVAINGGIYLYSCRDISE", "protein production": "failed"}
{"sequence": "EKITILADAIPELHVEEANDKVMGSIDWEAALKQSAGKEDLAQEMLQMLVDFIPEVNEWIDKALESDISEEELCHYIHKLHGSSSYCGVPRLKQLCNLIETSLRQHQTISDIEPELFELQDEMEKVTKDANLLLSN", "protein production": "not failed"}
{"sequence": "ELDDATCDDIYSGYLKAYEQNWTAYPDAKGVLDRAVATGAPVGILTNGAAPMQQDKLDRTGLGLPELVMLAASTLDSAKPRPEMYARALTHLGARTATIIGDDWTNDVAAPRELGWNALYLDRSGTDPRADIHSLDELFH", "protein production": "failed"}
{"sequence": "ELREARLNAFFSGAPVGMSILDNQLRFVQINELIAHIHGKPAQEHIGKTLEEIAPRIAPLVTPLCQKVLLTGQPILNVELSLPAVNQADSLRHFLVSYFPIPGEGNQLSGVGKVIVEISDVYDELRLRKRAEEALKESI", "protein production": "not failed"}
{"sequence": "EMVDDQAMNEQLYYYFDPGDFKPPLVVYFSGFRLALGVEGANMMRALEAPALIFGEQRILGGSFYVGSKKFEQEIVRIIQTTLKKLGFTANQLVLSGLSMGTYASLYY", "protein production": "failed"}
{"sequence": "ENGSRKQLYRLDLKTLEISQIQTGEDVVQWFGVATDNGAVWYSGQSANNADRLYRLDGTKGKLVWDLSAEKLANIDFTPARDWNYTAPDGTVVEGWYYLPPQFDPSKKYPMLVYYYGGTSPINRTLEGHYSLAMYAAQGYVVYTLNPSGTTGYGQEYAARHVNAWGDRTADEIIGATKEFIRTHSFVNGKK", "protein production": "failed"}
{"sequence": "ENIKTILLTVLVVISLVFTWGIWTFQPNFSEGSSSTESTVRVKHKIEKTTQKLSETVRPRDMFIHDDGAHYKVDDNALYEEIWSDLPHWDVKGIKDISDQYDKAGFKSWFYGIGGSEAKLDLQFSDTIPIDIFQTLFKWSNQSFEYSSFDHILIPFNETKANKKIYLVSYSKQLILEVTVESANYRNIMNDLKNRQSNMPAFSLFSIGSKKEFLLPNKPLTMDKKEFVTESIKTNTFKQALFSDPSIVREDSNYNNRNVLTDGISRLDVNLSQRQVQFQQRNLVQSTSYQTGELIKKSQKYLEDTGSWTDHYQFFNINDSQQLSFYIFMDQIPVINSTAKPFGATSAITVQWANDDILSYKRPNYSLGTNPIKTSETELMGGSEVKMLLSKQTAYDTDKIDQIFLAYQLVSTSTNDDPLVELEPVWAMKVNGKIVPITKDLLRKEGANSGVE", "protein production": "failed"}
{"sequence": "EPAPRGFLLIGANRVAREIGQALARYDRRVLMTDSNWEYISQVRMMGLDYYYGNPISSHADDNLNMIGIGQVVALTPDQHFNIMACMQF", "protein production": "failed"}
{"sequence": "EPEKLGQALTEVYAKANSFTVSSVAAPSWLHRFIIGKKGQNLAKITQQMPKVHIEFTEGEDKITLEGPTEDVSVAQEQIEGMVKDLINR", "protein production": "not failed"}
{"sequence": "EPPDERAVADGWQQLVELGAVDSQHVLTAIGREMARLPVDVKSARMLVAARQHGCVHEMTVIAAFLGVQDPRERPPEAREAADNAHAKFADAR", "protein production": "not failed"}
{"sequence": "EQEDKVSGEKTLAVVSASSDDRPSTRGIINDNTYALGVFRTTANTYAPLYNVKHIYSGGEWGADDVIKVDYRNASFFAYYPYHTATGNYAGLAGGTTLTLQAQLFNAGEDICYGAGEASGGGPVSVYNPFVEFLNMKHAYARLRLTLTRGEKFDKTKKCNIQNITFKSNNANFYLTRSLDIASTAGATGGSAVAAGYVHNPNVNIATGKSVTYEYMFPPQPLDGSKLTILVTVDGVTRSCDISTLGSSLDSGKYYGVSLTFTDVGIILSSAVVTVNNFGGQGNTQVDTEL", "protein production": "not failed"}
{"sequence": "EQQADGTWLMDGWISIRKASNLLEHDLVDEAERYSTLGGYLLWQFGYIPAAGEQITVDGLIFEIVSVNKHNIGKVRVHRTQ", "protein production": "not failed"}
